# Experiment: label from the status in PepcDB records
# 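Further: failed if final PepcDB status was selected cloned or expressed and not failed if soluble or beyond.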
row,Sequence,protein production
1,MISSMNFWRCRCSKDDAEQSMLYSYNNGFLGFSAKLNSTQAASLAKLNQVITVFKSKSLKLHTTRSWDFLGLAVDNARRTPPPQLAYGSDIVVGIFDTGLFISLKLLLLSILGIWPESESFRETPEAKPIPSSWNGKCVGGEDFDPSVHCNRKLIGARFYLRGFEETYGTIDFTRDPEYRSPRDYLGHGTHTASTAVGSVVRNVSGFFGLGRGTARGGAPLARLAVFKTCWGKDLEGVCTEADILAAFDDAIHDGVHVISASFGYSPPLSPFFESSADIGAFHAAERGISVVFSTGNDGPDPGVVQNVAPWAVSVAASTVDRSFPTRIVIDGSFTLTGQSLISQEITGTLALATTYFNGGVCKWENWMKKLANETIILCFSTLGPVQFIEEAQAAAIRANALALIFAASPTRQLAEEVDMIPTVRVDILHGTRIRNYLARSPTVPMVKIGPSKTVIGETTAPSVAYFSSRGPSSLSPDILKPDITAPGIGILAAWPPRTPPTLLPGDHRSIEWNFQSGTSMSCPHVAGVMALLQSAHPDWSPSAIRSAIMTTAYTRDTSYDLILSGGSMKSTDPFDIGAGHINPLKAMDPGLVYNTRTDDYVLFMCNIGYTDQEIKSMVLHPEPSTTCLPSHSYRTNADFNYPSITIPSLRLTRTIKRTVSNVGPNKNTVYFVDIIRPVGVEVLIWPRILVFSKCQQEHSYYVTFKPTEIFSGRYVFGEIMWTNGLHRVRSPVVVFLSNAGFLASS,failed
2,VTEEEIHAMLEEGSVAGIIEQQEHEMVRNVFRLDDRQLGSLMVPRADIIYLDTALPLEENMKRVVESEHSRFPVCHNGLQSLLGVVNAKQLLAQTIKGGVTNLAEHLQPCVYVPETLTGMELLDHFRTSGTQMVFVVDEYGEIQGLVTLQDMLEAVTGEFA,not failed
3,MKILVCITHVPDTTSKITFADNKFNTAGVQFIIGPYDEYALSRAVELKEQSGGTVTVLNVGDAETEPTIRKALAIGADDAIRINAVPKDAGFVAAQIAAVAKSGGYDLILMGRESIDYNGGLVHGLVADALGMPCVTPIMKLDIENGVAKMTREIEGGKESVECALPFVAGCQEPIAEWKIPNMRGIMSARTKPLNVVEPVVVADDVVYGTFSLPAPKGACKMIDAANPEELLTLLRNEAKVL,failed
4,MRVLKKFFSGDNLLERVLILIVGLVASLILVIKSADLFVDNLVDLGSSLGISEVILGVTASAIGTSLPEFGSALIASLSGSTDIGVGCVIGSNIWNIAGILGISSVVAGIIETNADGLKRDFSATLVTGLILLFFMFFGNIGKIAALVMVLTYAVYLWRLIKAQKTYSDENSGKNEREPLDLKKLALTVVGFAGLVIGCRILVYTGVELADIAGIPAMIMGLFTLAIGTSIPELVVTLSSAVKGLHELSIGTVLGSNTFNILVGIGVPALIAPVPVERLSLTFDAPVMILVTVLLVLLIRQGDMKLKRTGGIVLLAVYISYVIMRLFVLA,failed
5,MNEISVVLPAYNEEENIQKLVKRWQQLCKDLKYKYELSLNIFVIDDGSKDKTEVIGRELERKYDNFYLIKHDKNKGLGEAINTGIKYVMEKRSDSKYVCIMDCDNTQDPRYVFSMIEKMEKTDVVIASRYQKGSCVKGVPFFRLTASYGARFVYTIFLGVKNVRDYTCGYRLYRTSALKTAFKVFGESFIEESGFTCMVELLYKLNICGAVFKEVPFTLRYDFKGGVSKMKVLITAINSVKLTLRLKKIRKGVEPVLEDLEHHHHHH,failed
6,MALKEAHQPQTQPLWHQLGLVLAKHFEPQDAKAVLQLLRQEHEERLQKISLEHLEQLAQYLLAEEPHVEPAGERELEAKARP,failed
7,MAKSPKKSKSRLWFLVHSWLALPIWFFVLIVCFTGMLAVVSQEIVWLADPAARANKPDADTERMSFQQVLEALNKAEPDMVVERLSQPDGSHFAVKANVTLPDGTSPTLYVNPYTGTIQGRTPDFNFEAFTRALHGWWLVPFTNGFSWGWYLVSLLGLPMLASLVTGLVVYKKFWKGFFKPVRTGHGSRIFWGDLHRLSGVWSIWFIAVISITGTWFLIQAILSDNHITISSRPIVPVIAREEVPQTPDGSPASRIDLDEAARLAGLAIPGLEVTSITLPATAYSHVTLSGPGWYPLMFQSASVNPYTRNVDSQFLISDRSALEFVTESMRPLHTGDFGGLPIKLVWFFFGLILTLMVLSGLLIWTKRTAQATAAALKRSERAPRAAHSETTVEIHS,failed
8,MTKKKVYIVSHSHWDREWYLPYEEHHMRLIELVDNVLDLIENDPEFNSFHLDGQTIILDDYLQVRPEKKEAVKKAVQAGKLKIGPFYILQDDFLISSESNVRNMLIGHLESQKWGAPVQLGYFPDTFGNMGQTPQMMQLANLPAAAFGRGVKPIGFDNQVLESDYSSQYSEMWWEGPDQTKIFGLLFANWYSNGNEIPSEKEAAIAFWKQKLADVERYASTNHLLMMNGVDHQPVQRDITKAIALANELFPEYEFIHSNFDDYLKAVQEELPEDLGTVTGELTSQETDGWYTLANTSSARVYLKQWNTKVQRQLENIAEPLAAMAYEVTGDYPHDQFDYAWKTLLQNHPHDSICGCSVDEVHRGMMTRFENANDVGHFLADEATRQLTEAIDTSVFPEKAHPFVLFNTSGYQKTEVVTVEVEIERLPFYTGKPEDLYHELKQKATPDYQVIDPTGKAVASRIVKEDVRFGYDLPKDAFRQPYMAKYLTVELSVKEMAPFSWDSFALIQGETKAFEGSLLAQPATNEMENEFIQVKIENNGSLTIADKKTGETFSKLLTFEDTGDIGNEYIFFKPTEDQGITTENVTAEITNKENSPVKASYQIKQTVMLPVAADERLEEEQKAVREFRERLAQRSTTLRPFEITTMVTMIKESNQLFFETTINNQIKDHRLRVLFPTGMVTETHEADSIYEVVTRPNQVSDTWENPTNPQHQQAFVNVHDQNKGVTIFNEGLNEYEVLADGTIAVTLIRCVGELGDWGYFATPEAQCQGEYTFKYGLSLHGKPEERFATYQQAYSAQIPFTAATTARHEGKLAPNHVYLTTAEGPIGWTAVKRQEQTNHLVVRGFNLTAQNIPCELHKETQPATCLTNVLEEPLTPAIEVDAPLRPFEIRTWRFEK,not failed
9,MRQLTAAALYENLFGPLALAYAPGRPFEWRSNGRAWRARGRLGAFGRPRLEPGTVECRTGRAWRQASIADAVAALPGAPQEHARLRHELNQTEALLRWNRVNAPRHDRRRMSFSALDAAIDEGHPYHPCFKSRTGFDEHDHRCYGPEADGTFQLDWLGVARELLHLSFPSTEASFWKRELGAAGLADIEARAAALGLEHDRFGLMPIHPWQWRDLSADRLRPLLQSGRIHYLGAAGDRYRASQSVRTLSNAQAPHRSSVKLALGIVNTSTRRNIEAHSVATAPVLSRWLDTILDSDPLFRLRYRLDIVSEFAGAIVDRDGPLGGEIAAIWRESVESKLADGESAVPFNALMAIEADGLPFIDPWLQRYGLKPWLDRLVEVAVLPVWRLLVVHGIATEAHGQNMVLVHRDGWPERLILRDFHDSLEFVPDFLADPNLAPDFLTLDPRYRRALPNQYYWMERPEDLRDLFVDCLFVFNLSEISHLVQSFYGISEGAFWHRVSLRLAADIAEHGLGERVARLGFGTPEIVIESLLARKLGLSGDALQHNVPNPLAAVVPLAREYA,failed
10,MAKIKFFALGGQDERGKNCYVLEIDNDVFIFNVGSLTPTTAVLGVKKIIPDFSWIQENQARVKGIFIGNAITENLGSLEFLFHTVGFFPIYTSSIGASIIKSKINENKLNIARDKLEIHELKPLETIEISNHSITPFKVSSSLPSSFGFALNTDNGYIVFIDDFIVLNDKNIAFENQLNQIIPKLSDNTLLLITGVGLVGRNSGFTTPKHKSLEQLNRIITPAKGRIFVACYDSNAYSVMTLAQIARMQNRPFIIYSQSFVHLFNTIVRQKLFNNTHLNTISIEEINNSTNSIVVLTSPPDKLYAKLFKIGMNEDERIRYRKSDTFIFMTPKVAGYEEIEAQILDDIARNEVSYYNLGREILSIQASDEDMKFLVSSLKPKYIIPTGGLYRDFINFTMVLKQAGAEQNQILILFNGEVLTIENKKLDSKKNELKLNPKCVDSAGLQEIGASIMFERDQMSESGVVIIIIYFDQKKSEFLNEITYSFLGVSLDVPEKDKLKTKMEELIKKQINDIKDFTTIKKRIGKEISKELKVSIKRAVMNLFTKMTSKAPLILSTIISI,failed

# From a protein production outcome set (Wang et al. 2014)
